Experiment: soluble on expression in E. coli; label from the status in PepcDB or PDB records

**Q.** With “MSRKKFMESVGATCSNWNWSWSFVNHEERFVVFGHWDVHKDGLIFDESWKGPGRKQSLEHISLIQNNGYRLKTFPMQYDQTETGTAKIKSFDWILEEKHLAGVDGLWYALNYSESVDITSIEEVVHPETYIEGATKEISVNAYERNPDARAKCILHYGCKCYVCKFDFQEVYGDIGKGFIHVHHEVSLAEIKKEYSVDPIKDLKPLCPNCHGIIHRTHPPISVDSLINLLRSRNLEHHHHHH” as the sequence, how does the “soluble on expression in E. coli” value read?
**A.** Its value is “soluble”.

**Q.** Which “soluble on expression in E. coli” value does the source give for “MSRKYFYFDYDYYGMSFCEEEITTEPEEKVAYTSNSGGFADEVTGIPKEGHQSSIGEHSCVMPNTQDTGREEPEETSKVAETSEQSLFRIPRKAYRFTPGQLWELQAVFVENQYPDALKRKELAGLLNVDEQKIKDWFNNKRAKYRKIQREILGGKNITPTQEELRMKTLVESKKIIIFQEQEGDGLFWEHQNIDTQNSPLSLLFS” here?
**A.** Its value is “soluble”.

**Q.** Which “soluble on expression in E. coli” value does the source give for “MSRMIFLFLIPVVTSCIPTQQIEMPCPTDWEKFERPSGPWCVKLFVGLYLQGNRNEASARCAAEGAVLSGVQNQAELNAMTRQFTKLRYGYFWVGAMRKTSCLMSQLTATCTALNSFEWTDGSTTGTDGFIWKTGDPNNYLYNLYE” here?
**A.** The value was “not soluble”.

**Q.** Which “soluble on expression in E. coli” value does the source give for “MSRNHFNELSPCEALIMKLIWEAPQDIPVQELIDQLRDDYGKEYARTTVVTFVGKLKDKRFVDTYRKGKSAFIHPLRSEEEYRRQLLKEEADFWFNGKAVDMVASICESQKLEDDEIKRIKKILNGLNK” here?
**A.** The value was “not soluble”.

**Q.** For “MSRQTEIVRRMVSAFNTGRTDDVDEYIHPDYLNPATLEHGIHTGPKAFAQLVGWVRATFSEEARLEEVRIEERGPWVKAYLVLYGRHVGRLVGMPPTDRRFSGEQVHLMRIVDGKIRDHRDWPDFQGTLRQLGDPWPDDEGWRP”, which “soluble on expression in E. coli” value is on record?
**A.** Its value is “soluble”.

**Q.** With “MSRSQLTILTNICLIEDLETQRVVMQYRAPENNRWSGYAFPGGHVENDEAFAESVIREIYEETGLTIQNPQLVGIKNWPLDTGGRYIVICYKATEFSGTLQSSEEGEVSWVQKDQIPNLNLAYDMLPLMEMMEAPDKSEFFYPRRTEDDWEKKIF” as the sequence, how does the “soluble on expression in E. coli” value read?
**A.** The value was “soluble”.

**Q.** Which “soluble on expression in E. coli” value does the source give for “MSRTKDQAAAVLPTLLSALRLPSISRNWKHLTDTADRDGWPAANLLACLLEIEMAERASRRIQRHREQSGLPAGKTFATFDFDFPSGIRKPHLLSLATGEGWIESGGNILIFGQSGTGKTHVIAAIGHALIDAGRRVLFSTTTEMVQKLQAARRELSLPSMLDKLDKYDLIVLDSCAVRRDVESPSLGATFARRVARATQHKAAALEHHHHHH” here?
**A.** Its value is “not soluble”.

**Q.** With “MSRVAPRDSAAQAASAVAESVRYQGRKASRQGSEQRRQAILDAAMRLIVRDGVRAVRHRAVAAEAQVPLSATTYYFKDIDDLITDTFALFVERNAEALSAFWSSVEGDLQEMAAVLADDPGARGSLVERIVELAVQYVQVQLTERREHLLAEQAFRQEALLNPRLRELADAHQRILSLGAVHFFQVLGSGQPEQDAKVLTSIILQMEYQGLVDGVEQLAVDEMRAILRRYLNLVMGL” as the sequence, how does the “soluble on expression in E. coli” value read?
**A.** The value was “soluble”.

**Q.** For “MSRVITHGQVKRVSETNAYAVPVESLTFPTLQPIGPLPPAGTTGVLITQRVPNTPYTPAPPPPPPVPANQTIIYEDGNNNNTIYMRVVSVVGPAKYNIEVL”, which “soluble on expression in E. coli” value is on record?
**A.** The value was “not soluble”.

**Q.** Which “soluble on expression in E. coli” value does the source give for “MSRVKLGHHYYYIVTPQDLRDGKYKGKNIVIEGEIKDKPIIEFLPMELPSYRTIFRVSGFKVEFSGTPNVRMGEKVKVYGVFVGDGIIARAIETEGAIYITEE” here?
**A.** The value was “soluble”.

**Q.** With “MSSASGLRRGHPAGGEENMTETDAFYKREMFDPAEKYKMDHRRRGIALIFNHERFFWHLTLPERRGTCADRDNLTRRFSDLGFEVKCFNDLKAEELLLKIHEVSTVSHADADCFVCVFLSHGEGNHIYAYDAKIEIQTLTGLFKGDKCHSLVGKPKIFIIQACRGNQHDVPVIPLDVVDNQTEKLDTNITEVDAASVYTLPAGADFLMCYSVAEGYYSHRETVNGSWYIQDLCEMLGKYGSSLEFTELLTLVNRKVSQRRVDFCKDPSAIGKKQVPCFASMLTKKLHFFPKSN” as the sequence, how does the “soluble on expression in E. coli” value read?
**A.** Its value is “soluble”.

**Q.** With “MSSDALPLLSIRGVGKTYAQPVLAEIDLQLFGGEVLALTGENGAGKSTLSKIVGGLERPGAGSLELLGRPYAPASRREAEALGVRMVMQELNLLPTLSVAENLFLHDLPRRAGWIDRRRLRAAAREAMAQVGLEAIDPDTLVGDLGIGHQQMVEIARNLIGDCRLLILDEPTAMLTAREVDMLFEQVERLRERGVAIVYISHRLEELARISQRIAVLRDGRLVCVEPIERYDADQLVTLMVGRDLGERFDLGPRQTGAPLLRVERLSRRGKVHEVSFEVRAGEIFGISGLIGSGRTELLRLIYGADRADGGQVLLGDPPQRLSLRSPADSVRQGVALITEDRKGEGLLLDQSISANLALGNLPALARHGVIDRRREEALARRQVEALRVRCADTAQAVGELSGGNQQKVVIGRWLERDCQVLLFDEPTRGIDVGAKFDIYALLAELTRRGKALVVVSSDLRELMLICDRIGVLSAGRMVDTFERDAWTQDALLAAAFAGYK” as the sequence, how does the “soluble on expression in E. coli” value read?
**A.** Its value is “not soluble”.

**Q.** For “MSSDLYANAVLYSEISQRNPELVSKMFNEATRKKLDAFLKDNEAPKLKDIVTDNVFKKRKRIASSSGNEPPVKKMAAKDSSDSDSSDDGAVKKNGVQKPVNVAAKKSATPVQKKAESSSSSDSDAPAKKLTPVKKPAQTPAQKKAASSSDSDSDDEPPKKAPAVTTKVAPKPMAKKQDTSDSDSDSEDSDDGKSKKANPVKVTPVANVLQKVVAKKAASSSSDSSDDEKKPAAKPTPAKPTPKPVVKKAESSSDSSDDEKKPVAKPAPAKATPKPAAKKADSSSDSSDDEAPAKKTPAKAAPKPVAKKAESSSDSSDDEKKPAAKPTPAKATPKPVAKKAESSSDSSDDEKKPVAKPAPAKATPKPVAKKAESSSDSSDDEKKPAAKPTPAKATPKPVAKKAESSSDSSDDEKKPVAKPTSAKATPKPAAKKADSSSDSSDDEAPAKKTPAKAAPKPASKKAESSSDSSDDEKPAAKSTPAKITPKPTAKKVASSSSDSSDDEKKPAAKPTPANATPKPVAKKAESSSDSSDDEKKPVAKPTSAKATPKPAAKKADLSSDFSDDEAPAKKTPAKAAPKPASKKAESSSDSSDDEKPAAKSTPAKTTPKPTAKKAASSSSDSSDDEKKPVAKPTSAKATPKPAAKKADSSSDSSDDEAPAKKTPVKPTPVKIVAKKVDSSSDSSDDEKKPTKATPVKVTPKSVTKKAAASSSDSSDDEKKPVVKQTPNVVPKKEKAASSSDDSSDDEKKPTAKPTPKATPKQSAKKADSSDDSSDDEAPAKKTPAKSTPAKTAVKKEASSSSDDSSDDEKTKKKSATTPAKSTPKTALKKAESSDSSDDDEDLPKPSKAVTPRPQRADSEESAETEESSSRTPALKAKPLATSTEKAVYENRKRKSSPFRRVQMTKDSVSEKFRNNQHDSHFDQWGQRANESLGKVVGKAFRHEKTKKKKGSYGGGPINQSINSIKFSDSDD”, which “soluble on expression in E. coli” value is on record?
**A.** Its value is “soluble”.

**Q.** Which “soluble on expression in E. coli” value does the source give for “MSSDNLVENIIAEVLGKVGDLKTPSAASQPGISQQEPAIPRKLCGLTEFVGTATGDSIGLVIANVDSALLDAMHLEKKYRSIGILGARTGAGPQIMAADEAVKATNTEVVAIELARDTKGGAGHGSLVLFGGQDVSDVKRAVEVALGELERTFGDIYANAAGHVELQYTARASYALEKAFGAPLGRACGVIVGAPAAIGVLMADTAIKSANVDVVAYNSPAKGTSFTNEVILIVSGDSGAVRQAVRSARDVGLTLLETMGGKAPSATTPYI” here?
**A.** The value was “not soluble”.

**Q.** Which “soluble on expression in E. coli” value does the source give for “MSSDRSGAAAKASAGQCSSDRPLAVAADPKQYSMALCPDTPSYSLCGRLKSEWDKQSAAASPGPAAYDVPGYFDTLDPQQQQRHLWSGPVPGVHLGIRTVLPESREKAGVPGPGAYQLVRFGDELPRAREPLITRSSRRGRGAAADTPGPGAYDDPTSIAYRADQVRRKRLFTQCSTFGGRWCRREFHTAGPGPAAYNTLVATKLLEKNQRHAPRLVRRQPPLDRQSVAEAAAARMKVSGPPNPQAFPTLPSDFDFDFRKGKTIGGKPHEPLARTAPSHLTQAADDKPSGSRAFWESPPPPGGRFAATPFDPQSHSLAAEKAGTNAARLAEAGNCKPGPGSYNVEVDPTARRVPASLFGRTLSAKSVSVENGVPGPGHYRVVDDTSGRGTIFYKGDFHPRGCSGQGGSAAESLGVGPGAHYNDDTMYSNSINGDRAHNKGFTMGIRYPARATYQHCAPYDETTNINCVYDDELNWVVRPNQHLPLIRRGKL” here?
**A.** The value was “not soluble”.

**Q.** For “MSSEERSRQPSTVSTFDLEPNPFEQSFASSKKALSLPGTISHPSLPKELSRNNSTSTITQHSQRSTHSLNSIPEENGNSTVTDNSNHNDVKKDSPSFLPGQQRPTIISPPILTPGGSKRLPPLLLSPSILYQANSTTNPSQNSHSVSVSNSNPSAIGVSSTSGSLYPNSSSPSGTSLIRQPRNSNVTTSNSGNGFPTNDSQMPGFLLNLSKSGLTPNESNIRTGLTPGILTQSYNYPVLPSINKNTITGSKNVNKSVTVNGSIENHPHVNIMHPTVNGTPLTPGLSSLLNLPSTGVLANPVFKSTPTTNTTDGTVNNSISNSNFSPNTSTKAAVKMDNPAEFNAIEHSAHNHKENENLTTQIENNDQFNNKTRKRKRRMSSTSSTSKASRKNSISRKNSAVTTAPAQKDDVENNKISNNVTLDENEEQERKRKEFLERNRVAASKFRKRKKEYIKKIENDLQFYESEYDDLTQVIGKLCGIIPSSSSNSQFNVNVSTPSSSSPPSTSLIALLESSISRSDYSSAMSVLSNMKQLICETNFYRRGGKNPRDDMDGQEDSFNKDTNVVKSENAGYPSVNSRPIILDKKYSLNSGANISKSNTTTNNVGNSAQNIINSCYSVTNPLVINANSDTHDTNKHDVLSTLPHNN”, which “soluble on expression in E. coli” value is on record?
**A.** Its value is “soluble”.

**Q.** For “MSSEKEYVEMLDRLYSKLPEKGRKEGTQSLPNMIILNIGNTTIIRNFAEYCDRIRREDKICMKYLLKELAAPGNVDDKGELVIQGKFSSQVINTLMERFLKAYVECSTCKSLDTILKKEKKSWYIVCLACGAQTPVKPL”, which “soluble on expression in E. coli” value is on record?
**A.** The value was “soluble”.

**Q.** For “MSSEVEPPQKKKQPWLPDYIVENCLAHISRSYYPKLSLVSSPFALSSYPKSSTKRDIASTTEEYFFHVCLQLPKSPLPTWYTLWIKPDQIEKKKKINTFTGNTRLVQIPSSYHYPFDQVFIFNLYGAMRSSKAMVRPPSYGLVSMF”, which “soluble on expression in E. coli” value is on record?
**A.** Its value is “not soluble”.

**Q.** For “MSSISSSSSNVRMDRRFDWVGPPDNLSKIRKIMLRRVDNESELERQYRLAREELNQWNSDFWAEHNQLFDRQKSDFVERKQQELGRLEHVSANELSEFYRDFLNDRHVAMMAYNKEWYRRNLQLIWPALKVNVVRFFRMARR”, which “soluble on expression in E. coli” value is on record?
**A.** Its value is “not soluble”.

**Q.** With “MSSKEIICQGEELFRLIPQRPPMVMIDRFYGIEENTSWSGLTVTTDNLFCRDGVLQETGIIEHIAQSAAARVGYIYMLRKEPVPLGFIGSVEKMKLFRLPSAGAELYTGITIVQEVFDITLITAEVKENDELLAECRMKIYLKKELEHHHHHH” as the sequence, how does the “soluble on expression in E. coli” value read?
**A.** The value was “soluble”.

**Q.** Which “soluble on expression in E. coli” value does the source give for “MSSKGSVVLAYSGGLDTSCILVWLKEQGYDVIAYLANIGQKEDFEEARKKALKLGAKKVFIEDVSREFVEEFIWPAIQSSALYEDRYLLGTSLARPCIARKQVEIAQREGAKYVSHGATGKGNDQVRFELSCYSLAPQIKVIAPWRMPEFYNRFKGRNDLMEYAKQHGIPIPVTPKNPWSMDENLMHISYEAGILENPKNQAPPGLYTKTQDPAKAPNTPDILEIEFKKGVPVKVTNVKDGTTHQTSLELFMYLNEVAGKHGVGRIDIVENRFIGMKSRGIYETPAGTILYHAHLDIEAFTMDREVRKIKQGLGLKFAELVYTGFWHSPECEFVRHCIAKSQERVEGKVQVSVLKGQVYILGRESPLSLYNEELVSMNVQGDYEPTDATGFININSLRLKEYHRLQSKVTAK” here?
**A.** The value was “not soluble”.

Source: the DeepSol protein solubility set
